From patent US10294487B2, “Methods and compositions involving ALS variants with native substrate preference” (E I DU PONT DE NEMOURS AND COMPANY, priority 2012, dated 2019)
Numbering of substitutions follows the chain as printed.

B1: GM-ALS1: Glycine Max ALS1 protein, wild type (protein)
chain: MAATASRTTRFSSSSSHPTFPKRITRSTLPLSHQTLTKPNHALKIKCSISKPPTAAPFTKEAPTTEPFVSRFASGEPRKGADILVEALERQGVTTVFAYPGGASMEIHQALTRSAAIRNVLPRHEQGGVFAAEGYARSSGLPGVCIATSGPGATNLVSGLADALMDSVPVVAITGQVPRRMIGTDAFQETPIVEVSRSITKHNYLILDVDDIPRVVAEAFFVATSGRPGPVLIDIPKDVQQQLAVPNWDEPVNLPGYLARLPRPPAEAQLEHIVRLIMEAQKPVLYVGGGSLNSSAELRRFVELTGIPVASTLMGLGTFPIGDEYSLQMLGMHGTVYANYAVDNSDLLLAFGVRFDDRVTGKLEAFASRAKIVHIDIDSAEIGKNKQAHVSVCADLKLALKGINMILEEKGVEGKFDLGGWREEINVQKHKFPLGYKTFQDAISPQHAIEVLDELTNGDAIVSTGVGQHQMWAAQFYKYKRPRQWLTSGGLGAMGFGLPAAIGAAVANPGAVVVDIDGDGSFIMNVQELATIRVENLPVKILLLNNQHLGMVVQWEDRFYKSNRAHTYLGDPSSESEIFPNMLKFADACGIPAARVTKKEELRAAIQRMLDTPGPYLLDVIVPHQEHVLPMIPSNGSFKDVITEGDGRTRY
modifications: GLYCINE MAX
notes: Glycine Max ALS1 protein, wild type
B2: SAMS: GM-ALS_P178A_W555L: SAMS promoter driving HRA ALS variant SEQ ID NO 10 in transgenic soybean (protein)
chain: B1 chain with P178A, W555L
B3: UBQ10: GM-ALS_A103T_P178S: UBQ10 promoter driving ALS variant SEQ ID NO 7 in transgenic soybean (protein)
chain: B1 chain with A103T, P178S

Experiments:
[1] = test system: soybean embryogenic suspension tissue; assay: Chlorsulfuron selectable marker activity in soybean transformation; type: cell-based; settings: chlorsulfuron selection 50 then 100 ppb; SAMS (low) or UBQ10 (high) expression promoter as in label
Text: Soybean plants expressing ALS variant transgenes were produced using the method of particle gun bombardment (Klein et al. (1987) Nature 327:70-73, U.S. Pat. No. 4,945,050) using a DuPont BIOLISTIC® PDS1000/He instrument. The vectors used to test modified ALS genes as selectable markers in soybean transformation were composed of the S-adenosylmethionine synthase (SAMS) promoter (U.S. Pat. No. 7,741,537) from soybean, or the polyubiquitin 10 (AT-UBQ10) promoter (DuPont) from Arabidopsis, driving the modified ALS coding sequence followed by the native soybean ALS terminator region. The selection agent used during the transformation process was chlorsulfuron. Bombardments were carried out with linear DNA fragments purified away from any bacterial vector DNA. Bombarded soybean embryogenic suspension tissue was cultured for one week in the absence of chlorsulfuron, and then placed in liquid selection medium for 6 weeks. Selection in liquid cultures was at 50 parts per billion (ppb) chlorsulfuron for three weeks, then elevated to 100 ppb. Putative transgenic suspension tissue was sampled for PCR analysis to confirm the presence of the modified ALS gene. Putative transgenic suspension culture tissue was maintained in selection medium for 3 weeks to obtain enough tissue for plant regeneration. […]

G. max ALS1 protein [2] = assay: Colorimetric ALS kinetic assay (Km, kcat) with pyruvate as substrate; type: biochemical, Glycine max
How it was run: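 Recombinant soybean ALS variants, mature N-terminus from S48, His-MBP tag cleaved off; 0.8 ug enzyme per well in 25 mM potassium phosphate, 15 mM MgCl2, 0.7 mM TPP, 28 uM FAD, 0.2 mg/ml BSA, 0-100 mM pyruvate. Km and Vmax from hyperbolic fit; kcat from Vmax and protein concentration.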

G. max ALS1 protein [3] = assay: Substrate specificity ratio (Rf), pyruvate versus 2-ketobutyrate, LC-MS of reduced products; type: biochemical, Glycine max; settings: ratio of [pyruvate] to [2-ketobutyrate] giving equal rates of acetolactate and acetohydroxybutyrate formation, 25 mM pyruvate
How it was run: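 Pyruvate was held at 25 mM while 2-ketobutyrate was varied. Reactions were quenched with sodium borohydride, and the reduced acetolactate and acetohydroxybutyrate were separated on C18 with a methanol gradient and quantified by MS integration. Rf is the [pyruvate]/[2-ketobutyrate] ratio that gives equal formation rates of both products.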

soybean plants [4] = assay: Spray test of homozygous transgenic soybean plants with five ALS-inhibitor herbicides; type: in vivo; settings: homozygous T1 or T2 plants; for Lowest % injury Tribenuron-methyl: tribenuron-methyl 16 g ai/ha foliar
Method: T1 or T2 soybean plants were evaluated with qPCR to confirm they were homozygous for the transgene. Plants were sprayed at the V1 to V2 growth stage with the commercial formulations of chlorimuron (32 g ai/ha), tribenuron-methyl (16 g ai/ha), thifensulfuron-methyl (16 g ai/ha), rimsulfuron (8 g ai/ha), and imazapyr (4 g ai/ha). Each herbicide was applied foliarly with nonionic surfactant in a spray volume of 374 L/ha. The herbicide response for individual plants was determined by comparing to untreated plants of similar genetic background. Visual injury was scored on a scale of 0 to 100% injury (0=no effect to 100=dead plant). The lowest response for four treated plants of a single event from each construct with the listed expression cassette is reported.

soybean plants [5] = assay: Chlorsulfuron spray test of transgenic T1 soybean plants; type: in vivo; settings: chlorsulfuron 3 g ai/ha foliar; homozygous T1 plants; 8 days after treatment; 0=no effect, 100=dead plant
Method: T1 plants, each having an ALS variant transgene, were grown to the V1 to V2 growth stage and then sprayed with commercial chlorsulfuron formulation at a rate of 3 g ai/ha. All chlorsulfuron treatments were applied foliarly with 0.25% nonionic surfactant in a spray volume of 374 L/ha. Individual plants were compared to untreated plants of similar genetic background, evaluated for herbicide response at eight days after treatment and assigned a visual response score from 0 to 100% injury (0=no effect to 100=dead plant at day 8).
Results in Table 8 list the lowest injury among plants of a single event for constructs containing the listed expression cassette. The amino acid substituted ALS variants provided more protection than the overexpression of the native ALS gene. Seed was produced from a number of T1 plants and advanced to more extensive herbicide testing in the T2 generation.

soybean plants [6] = assay: Field spray test of homozygous T3 soybean plants with Affinity Broadspec; type: in vivo; settings: Affinity Broadspec (thifensulfuron + tribenuron) 1 oz product per acre
Method: Homozygous T3 soybean plants with and without ALS variant transgenes were grown in a field study and sprayed at the V2 to V4 growth stage with a commercial formulation of Affinity Broadspec at 1 oz product per acre (2× typical field rate). Affinity Broadspec contains 25% thifensulfuron and 25% tribenuron by volume. The herbicide was applied foliarly with nonionic surfactant. The herbicide response for individual events was determined by comparing to untreated plants of similar genetic background. Visual injury is on a scale of 0 to 100% injury (0=no effect to 100=dead plant). The substituted ALS variants gave substantially more protection to ALS-inhibitors than overexpression of the native ALS gene.

Molecule | Selectable Marker Activity [1] | Km (G. max ALS1 protein [2]) | kcat (G. max ALS1 protein [2]) | Substrate specificity ratio (Rf) (G. max ALS1 protein [3]) | Substrate specificity ratio (Rf) (G. max ALS1 protein [3]; listed as Glycine max ALS1) | Substrate specificity ratio (Rf) (G. max ALS1 protein [3]; listed as wild type enzyme) | Lowest % injury Tribenuron-methyl (soybean plants [4]) | Lowest % injury (soybean plants [5]) | Lowest % injury (soybean plants [6]) | Lowest % injury Chlorimuron (soybean plants [4]; chlorimuron 32 g ai/ha foliar) | Lowest % injury Imazapyr (soybean plants [4]; imazapyr 4 g ai/ha foliar) | Lowest % injury Rimsulfuron (soybean plants [4]; rimsulfuron 8 g ai/ha foliar) | Lowest % injury Thifensulfuron-methyl (soybean plants [4]; thifensulfuron-methyl 16 g ai/ha foliar)
B1 | not able to act as a selection marker | 3000 µM | 0.933 s⁻¹ | 114.0 | ~114 | ~114 |  |  |  |  |  |  | 
B2 |  |  |  |  |  |  | 75% | 10% | 5% |  |  |  | 
B3 |  |  |  |  |  |  | 65% | 40% | 57% | 35% | 45% | 80% | 35%
